A short description of this data set: yeast display, Sf9 membrane polyspecificity reagent, FACS + sequencing; frameworks hold sequencing errors. A digest of the protocol:
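Polyreactivity labels are assigned by the sorting gate from which each nanobody was recovered. The gates were low and high (top ~1%), set on anti-HA fluorescence for expression and streptavidin fluorescence for reagent binding. Before sorting, galactose-induced (36–48 hours) yeast display cells were stained for 1 hour at 4 °C with 10% biotinylated, detergent-solubilized Sf9 membrane reagent.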
In the case of “QVQLVESGGGLVQAGGSLRLSCAASGFIFNYYTMGWYRQAPGKEREFVAAIRRSGTRTYYADSVKGRFTISRDNAKNTVYLQMNSLKPEDTAVYYCAARGTSPGHGTYTRTRGQRYYYWGQGTQVTVSS”, the “polyreactivity (PSR sort gate)” value was “high polyreactivity”.
Then “QVHLVESGGGLVQAGGSLRLSCAASGSIFTRYTMGWYRQAPGKERELVAAITRSGGSTYYADSVKGRFTISRDNAKNTVYLQMNSLKPEDTAVYYCAARVRLATGARDYWGQGTQVTVSS”, with “high polyreactivity”.
Then “QVQIVESGRGLVQAGGSLSLSCAASGNIFYRYTMGWYRQAPGKERELVAAISRTGGSTYYADSVKGRFTISRDNAKNTVYLQMNSLKPEDTAVYYCAVRYMDPPYFYSKRFGYWGQGTQVTVSS”, with “high polyreactivity”; and “QVQLVESGGGLVQAGGSLRLSCAASGFIFGLNAMGWYRPAPGKERELVAAIRSASSTNYADSVKGRFTISRDNAKNTVYLQMNSLKPEDTAVYYCAAEYVTYQQGFWGYDYWGQGTQVTVSS”, with “low polyreactivity”.
As for “QVQLVESGGGLVHPGGSLRLSCAASGRTYAVDAMGWYRQAPGKERELVAAISRRGGSTSYADSEKGRFTISRDNAKNTVSLQMNSLKPEDTAVYYCNTDPGKFTPFDYWGQGTQVTVSS”, the “polyreactivity (PSR sort gate)” value is “high polyreactivity”.
Regarding “QVQLVESGGGLVQAGGSLRLSCAASGSTFVSYAMGWYRQAPGKEREFVAAITWSGGSTYYADSVKGRFTISRDNAKNTVYLQMNSLKPEDTAVYDCAAATYRQQWHYYWGQGTQVTVSS”, the “polyreactivity (PSR sort gate)” value is given as “high polyreactivity”.
Under “QVQLVESGGGLVQAGGSLRLSCAASGITFSRNTMGWYRQAPGKERELVAAISRSGASTYYADSVKGRFTISRDNAKNTVYLQMNSLKPEDTAVYYCAARFHYPGGPRYYYWGQGTQVTVSS” stands “high polyreactivity”; under “QVQLVESGGGLVQAGGSLRLSCAASGRIFTTYAMGWYRQAPGKERELVAAISRSGGSTYYADSVKGRFTISRDNAKNTVYLQMNSLKPEDTAVYYCAAVPTSNSFLSSFYYWGQGTQVTVSS”, “high polyreactivity”.
Then “QVQLVESGGGLVQAGGSLRLTCAASGRTFRANAMGWYRQATGKERELVAAISQRGGNTYYADSVKGRFTSSRDNAKNTVYFQMNSLKPEDTAVYYCAADITTYRRGRYEYEYWGQGTQVTVSS”, with “high polyreactivity”; and “QDQLVDSGGGLVQAGGSLRLICAASGRTYRKYAMGWYRQAPGKERELVADISWSGGSTYYANSVKGRFTISRDIAKNTVYLQMNSLKPEDTAVYYCAAVPVHTGSLYWGFTTGYDYWGQGTQVTVSS”, with “low polyreactivity”; and “QVHLVESGGGLVQAGGSLRLSCAASGSTFSSYAMGWYRQAPGKERELVAAINWSGTRTYYADSVKGRFTISRDNAKNTVYLQMNSLKPEDTAVYYCAAPGDGETADYDYWGQGTQVTVSS”, with “low polyreactivity”.
Under “QVQLVESGGGLVQAGGSLRLICAASGSTSWINAMGWYIQAPGKERELVAAISGRDGSTNYADSVKGRFTISRDNAKNTVYLLMNSLKPEDTAVYYCNANGRRFNRYGGDYWGLGTQVTVSS” stands “high polyreactivity”; under “QVQHVESGGGLVQAGGSLRLSCAASGSTFRRYAMGWYRQAPGKERELVASITYRGGSTYYADSVKGRFTISRDNAKNTVYLQKNSLKPEDTAVYYCSKKGVYGPLIEYWAQGTQVTVSS”, “high polyreactivity”; under “QVQLVDSGGGLVQAGGSLRLSCAASGIIFWYYTRGWYRQAPGKERELVASISRGGSTYYADSVKGRFTISRDNAKNTVYLQMNSLKPEDTAVYYCARRPNTGPYGNYDYWGQGTQVTVSS”, “high polyreactivity”.
As for “QVQLVESGGGLVQAGGSLRLSCAASGFTFEGYAMGWYRQAPGKERELVASISSGGGTNYADSVKGRFTISRDNAKNTVYLQMNSLKPEDTAVYYCAARAYPYFWTGQKLSRFGYWGQGTQVTVSS”, the “polyreactivity (PSR sort gate)” value is recorded as “high polyreactivity”.
For “HVQLVESGGGLVQAGGSLRLSCAASGRISGANMGWDRQAPGKERELGAAISNGGSTNYADSVKGRFTISRANAKNTVYLQMNSLKPEDTAVYYCAKLGPRSYSSYRYDYWGQGTQVTVSS”, the “polyreactivity (PSR sort gate)” value was “high polyreactivity”.
On to “QVQLVDSGGGLVQAGGSLRLSCAASGSIILVNAMGWYRQAPGKEREFVAAISTSSGSTYYADSVKGRFTISRDNAKNTVYLQMNSLKPEDTAVYYCAADEVYSRGIWPVEDDYWGQGSQVTVSS”, for which the “polyreactivity (PSR sort gate)” value is “low polyreactivity”.
Consider “QVQLVESGGGLVQAGGSLRLSCAASGRIFYQNVMGWYRQAPGKERELVAAITTSGGRTYYADSVKGRFTISRDNAKNTVYLQMNSLKPEDTAVYYCAAKASNRGYYYWGQGTQVTVSS”, for which the “polyreactivity (PSR sort gate)” value is “high polyreactivity”.
Then “LVQLVESGGGLVQAGGSLRLSCAASGSTFIPYAMGWYRQAPGKERELVAAIRGGDGSTYYADSVKGRFTISRDNAKNTVYLQMNSLKPEDTAVYYCAADTVITAYFYRFWRYNYWGQGTQVTVSS”, with “low polyreactivity”; and “QVQLVESGGGLVQAGGSLRLSCAASGNTFYGYAMGWYRQAPGKERELVASITLSGDSTYYADSVKGRFTISRDNAKNTVYLQMNSLNPEETAVYYFNAQFTPRYWGGYDSWGQGTQVTVSS”, with “low polyreactivity”; and “QVQLVESGGGLVQAGGSLRLSCAASGITFSYNAMGWYRPAPGKERELVAAISSNSDSTYYADSVKGRFTISRDNAKNTVYLQMNSLKPEDTAVYYCAADTPDAPDYSGFYYWGQGTQVTVSS”, with “low polyreactivity”.
As to “QVQLVESGGGLDQAGGSLRLSCAASGFILDTYGMGWYRQATGTERELVAAISQSDVSTYYADSVKGRFTISRDNAKNTVYLQMNSLKPEDTAVYYCAAAHLSYRRRYESWGQGTQVTVSS”, the “polyreactivity (PSR sort gate)” value was “low polyreactivity”.
Consider “QVQLVESGGGLVQAGGSLRLSCAASGSTFDPYAMGWYRQAPGKERELVAAITWGGGSTYADSVKGRFTISRDNAKNTVYLQMNSLKPEDTAVYYCAAEYYLWLFEYYVEYDYWGQGTQVTVSS”, for which the “polyreactivity (PSR sort gate)” value is recorded as “high polyreactivity”.
In the case of “QVQLVESGGGLVQAGGSLRLSCAASGFIFRWYAMGWYRQAPGKERELVAAISRSGDSTYYADSVKGRFTISRDNAKNTVYLQMNSLKPEDTAVYYCAADDRYYTYGYDYWGQGTQVTVSS”, the “polyreactivity (PSR sort gate)” value was “low polyreactivity”.
Then “QVQIVESGGGLVQAGGSLRLSCAASGSTFDGNAMGWYRQAPGKERELVATINSDDSKNYSDSVKGSFTISRDNAKNTVYLQMNSLKPEDTAVYYCAAVVSVPELYDYWGQGTQVTVSS”, with “low polyreactivity”; and “QVQLVESGGGLVQAGGSLRLSCAASGIIFTYNTMGWYRQAPGKERELVAAINYSGGSTYYADSVKGRFTISRDNAKNTVYLQMNSLKPEDTAVYYCAAPYRRKARGFQQSFDYWGQVTQVTVSS”, with “high polyreactivity”; and “QVQLVESAGGLVQAGGSLRLSCPASGRTSVINAMGWYRQSPGKERELVAAISSDGITNYADSVKGRFTISRDNAKNTVYLQMISLKPEDTAVYYCAAEWYYVYIAPYDYWGQGTQVTVSS”, with “low polyreactivity”.
Then “QVQLVESGGGLVQAGGSLRLSCAASGITFYGYAMGWYRQAPGKERELVAAISRSGGSTYYADSVKGRFTISRDHAKNTVYVQMNSLKPEDTAVYYCNTDYGSSYNYWGQGTQVTVSS”, with “high polyreactivity”.
Under “QVQLVESGGGLVQAGGSLRLSCAASGSTFFYNAMGWYRQAPGKERELVAAISRGGGITYYADSVKGRFTISRDNAKNTVYLQMNSLKPEDTAVYYCQYLSRGLNTYRSSQGDDDYWGQGTQVTVSS” stands “high polyreactivity”; under “QVQLVESGGGLVQAGGSLSLICAASGRTFGPNTMGWYRQAPGKERELVAAITGSGGSTYYADSVKGRFTISRDNAKNTVYLQMNSLKPEDTAVYYCAKSVRYPASDYWGQGTQVTVSS”, “low polyreactivity”.

These data come from the nanobody polyreactivity screen of Harvey et al. (2022).
